# T1: hCD22.mmh (human, UniProt P20273 20-687)
# T1 construct: Analyte of the Biacore assay; also called Recombinant CD22; human CD22
# T1 sequence (looked up): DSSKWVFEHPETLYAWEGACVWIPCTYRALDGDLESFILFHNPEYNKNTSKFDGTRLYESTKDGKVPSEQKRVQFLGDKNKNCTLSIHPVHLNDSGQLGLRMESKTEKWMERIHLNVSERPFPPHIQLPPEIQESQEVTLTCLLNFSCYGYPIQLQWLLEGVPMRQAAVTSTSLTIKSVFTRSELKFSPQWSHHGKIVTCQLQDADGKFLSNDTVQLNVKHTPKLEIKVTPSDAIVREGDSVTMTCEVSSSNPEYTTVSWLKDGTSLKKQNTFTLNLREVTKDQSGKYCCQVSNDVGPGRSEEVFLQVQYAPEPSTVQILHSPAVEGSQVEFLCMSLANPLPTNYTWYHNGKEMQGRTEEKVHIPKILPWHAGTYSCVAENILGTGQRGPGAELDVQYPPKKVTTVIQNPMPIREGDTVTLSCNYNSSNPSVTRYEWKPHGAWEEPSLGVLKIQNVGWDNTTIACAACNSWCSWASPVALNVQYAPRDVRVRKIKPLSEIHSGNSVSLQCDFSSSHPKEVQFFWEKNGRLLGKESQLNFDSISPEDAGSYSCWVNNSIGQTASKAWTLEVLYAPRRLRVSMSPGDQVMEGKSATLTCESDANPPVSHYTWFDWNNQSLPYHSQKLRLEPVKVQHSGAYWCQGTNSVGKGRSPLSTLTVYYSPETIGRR
# Biological target: T1, hCD22.mmh
# Assay: SPR (Biacore), mAb captured from CHO supernatant on anti-human Fc, 25C pH 7.4
binder,measurement,value
"mAb23 (antibody, V domains shown) VH: EVQLLESGGGLVQPGGSLRLSCAASGFTFSSYAMTWVRQAPGKGLEWVSTISGSGVSTYSADSVKGRFTISRDNSKNTLYLQMNSLRAEDTAVYYCALHWELLDAFDIWGQGTMVTVSS VL: EIVLTQSPGTLSLSPGERATLSCRASQSISYNYLAWYQQKPGQAPRLLIYGASSRASGISDRFSGSGSGTDFTLTISRLEPEDFVVYYCQQYGSSPLTFGGGTKVEVK",Kd,0.16 µM
same,koff,0.0117 s⁻¹
same,kon,73200 M⁻¹ s⁻¹
same,t½,1 min
